Residue numbers refer to the chain shown, from its start.
B1: Germ6 (antibody, V domains shown)
VH: ADLVQSGAVVKKPGDSVRVSCEAQGYRFPDYIIHWIRRAPGQGPEWMGWMNPMGGQVNIPWKFQGRVSMTRDTSIETAYLDLRGLKSDDTAVYYCVRDRSNGSGKRFESSNWFLDLWGRGTAVTVQS
VL: QSALTQPRSVSGSPGQSVTISCTGTHNLVSWCQHQPGRAPKLLIYDFNKRPSGVPDRFSGSGSGGTASLTISGLQDEDDAEYFCWAYEAFGGGTKLTVL
B2: Germ18 (antibody, V domains shown)
VH: QVQLVQSGAEVKKPGASVKVSCEASGYRFPDYIIHWIRRAPGQGPEWMGWMNPMGGQVNIPWKFQGRVSMTRDTSIETAYMELRGLRSDDTAVYYCVRDRSNGSGKRFESSNWFLDLWGRGTLVTVSS
VL: B1 VL
B3: NglycoND (antibody, V domains shown)
VH: B1 VH with V19I, Y79F, N101D, V125I
VL: B1 VL with G12A, S72T, E77D
B4: CysCA (antibody, V domains shown)
VH: B1 VH with V19I, Y79F, V125I
VL: B1 VL with G12A, C32A, S72T, E77D
B5: CysCV (antibody, V domains shown)
VH: B1 VH with V19I, Y79F, V125I
VL: B1 VL with G12A, C32V, S72T, E77D
B6: Hydro2 (antibody, V domains shown)
VH: B1 VH with V19I, W61Q, Y79F, V125I
VL: B1 VL with G12A, S72T, E77D, A89N
B7: Germ12_NglycoSA_CysCA (antibody, V domains shown)
VH: B2 VH with Q3D, E10V, A16D, K19R, S25Q, E82D, S104A
VL: B1 VL with C32A
B8: Germ17 (antibody, V domains shown)
VH: B2 VH with Q3D, E10V, A16D, K19R, S25Q, E82D
VL: B1 VL with Q35H, R38K, L43M, D76A, D79E
B9: Germ23 (antibody, V domains shown)
VH: B2 VH
VL: B1 VL with Q35H, R38K, L43M, D76A, D79E
B10: NglycoSA (antibody, V domains shown)
VH: B1 VH with V19I, Y79F, S103A, V125I
VL: B1 VL with G12A, S72T, E77D
B11: NglycoNDplus6 (antibody, V domains shown)
VH: B1 VH with V19I, R27T, Y79F, S100G, N101D, G104R, K105R, R106H, E108D, V125I
VL: B1 VL with G12A, S72T, E77D
B12: Germ12 (antibody, V domains shown)
VH: B2 VH with Q3D, E10V, A16D, K19R, S25Q, E82D
VL: B1 VL
B13: NVS49-L1A2 (antibody, V domains shown)
VH: B1 VH with V19I, Y79F, V125I
VL: B1 VL with G12A, S72T, E77D

target: Clade B BaL gp120 protein (HIV-1 Clade B, BaL); experiment: BLI (Octet), IgG on anti-hIgG Fc sensor, gp120 analyte, 1:1 fit

Row | Binder | Kd | fold (KD vs average of 4 runs of L1A2) | koff | kon
1 | B1 | 0.92 nM | 1.7 fold | 7.11e-05 s⁻¹ | 77100 M⁻¹ s⁻¹
2 | B2 | 0.98 nM | 1.81 fold | 7.09e-05 s⁻¹ | 72200 M⁻¹ s⁻¹
3 | B3 | 18.7 nM | 34.5 fold | 0.00128 s⁻¹ | 68400 M⁻¹ s⁻¹
4 | B4 | 1.1 nM | 2.03 fold | 8.01e-05 s⁻¹ | 71900 M⁻¹ s⁻¹
5 | B5 | 0.82 nM | 1.52 fold | 6.4e-05 s⁻¹ | 77900 M⁻¹ s⁻¹
6 | B6 | 0.96 nM | 1.77 fold | 7.18e-05 s⁻¹ | 74700 M⁻¹ s⁻¹
7 | B7 | 0.63 nM | 1.16 fold | 4.92e-05 s⁻¹ | 78300 M⁻¹ s⁻¹
8 | B8 | 0.65 nM | 1.2 fold | 5.15e-05 s⁻¹ | 79300 M⁻¹ s⁻¹
9 | B9 | 0.97 nM | 1.79 fold | 7.66e-05 s⁻¹ | 79100 M⁻¹ s⁻¹
10 | B10 | 0.84 nM | 1.54 fold | 6.12e-05 s⁻¹ | 73300 M⁻¹ s⁻¹
11 | B11 | 11.3 nM | 20.9 fold | 0.0006 s⁻¹ | 53300 M⁻¹ s⁻¹
12 | B12 | 0.88 nM | 1.62 fold | 7.09e-05 s⁻¹ | 80800 M⁻¹ s⁻¹

target: Clade C DU172.17 gp120 protein (HIV-1 Clade C, DU172.17); experiment: as above

Row | Binder | Kd | fold (KD vs average of 4 runs of L1A2) | koff | kon
13 | B1 | 19.3 nM | 0.76 fold | 0.000466 s⁻¹ | 24100 M⁻¹ s⁻¹
14 | B2 | 21.3 nM | 0.84 fold | 0.000415 s⁻¹ | 19500 M⁻¹ s⁻¹
15 | B3 | 368 nM | 14.5 fold | 0.0183 s⁻¹ | 49700 M⁻¹ s⁻¹
16 | B4 | 19.6 nM | 0.77 fold | 0.000446 s⁻¹ | 22800 M⁻¹ s⁻¹
17 | B5 | 26.7 nM | 1.05 fold | 0.000495 s⁻¹ | 18500 M⁻¹ s⁻¹
18 | B6 | 55.5 nM | 2.18 fold | 0.000974 s⁻¹ | 17600 M⁻¹ s⁻¹
19 | B7 | 18.1 nM | 0.71 fold | 0.000337 s⁻¹ | 18600 M⁻¹ s⁻¹
20 | B8 | 17.5 nM | 0.69 fold | 0.000331 s⁻¹ | 18900 M⁻¹ s⁻¹
21 | B9 | 22.4 nM | 0.88 fold | 0.000368 s⁻¹ | 16400 M⁻¹ s⁻¹
22 | B10 | 18.4 nM | 0.72 fold | 0.000303 s⁻¹ | 16500 M⁻¹ s⁻¹
23 | B12 | 21.5 nM | 0.85 fold | 0.000438 s⁻¹ | 20400 M⁻¹ s⁻¹

target: Clade B BaL gp120 protein (HIV-1 Clade B, BaL); experiment: BLI (Octet), IgG on anti-hIgG Fc sensor, gp120 analyte, 1:1 fit; average of 4 runs

Row | Binder | Kd | fold (KD vs average of 4 runs of L1A2) | koff | kon
24 | B13 | 0.54 nM | 1 fold | 4.41e-05 s⁻¹ | 81300 M⁻¹ s⁻¹

target: Clade C DU172.17 gp120 protein (HIV-1 Clade C, DU172.17); experiment: as above

Row | Binder | Kd | fold (KD vs average of 4 runs of L1A2) | koff | kon
25 | B13 | 25.4 nM | 1 fold | 0.000526 s⁻¹ | 21100 M⁻¹ s⁻¹

Reference: US20210040184A1
